Measurements from PMC8729806, “Chaperones mainly suppress primary nucleation during formation of functional amyloid required for bacterial biofilm formation†” (Chemical Science, 2021).

How the values were obtained:
[1] = target: CsgA from E. coli (residues 21-151), without its signal sequence (E. coli) (UniProt P28307)
[2] = target: Full-length FapC (residues 25-250) from Pseudomonas sp. UK4, without its signal sequence (Pseudomonas sp. UK4)
[3] = target: CsgA from E. coli (residues 21-151), without its signal sequence (E. coli, UniProt P28307 21-151); assay: cell-based or functional assay
Chain of CsgA from E. coli (residues 21-151), without its signal sequence (P28307 21-151): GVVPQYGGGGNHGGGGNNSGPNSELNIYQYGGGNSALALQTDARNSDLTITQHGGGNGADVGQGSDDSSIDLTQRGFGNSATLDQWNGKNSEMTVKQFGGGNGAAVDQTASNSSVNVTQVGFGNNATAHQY

Chain of CsgA from E. coli (residues 21-151), without its signal sequence (E. coli) (P28307 21-151): as above
Chain of Full-length FapC (residues 25-250) from Pseudomonas sp. UK4, without its signal sequence (Pseudomonas sp. UK4) (P0DXF5 25-250 limits assumed): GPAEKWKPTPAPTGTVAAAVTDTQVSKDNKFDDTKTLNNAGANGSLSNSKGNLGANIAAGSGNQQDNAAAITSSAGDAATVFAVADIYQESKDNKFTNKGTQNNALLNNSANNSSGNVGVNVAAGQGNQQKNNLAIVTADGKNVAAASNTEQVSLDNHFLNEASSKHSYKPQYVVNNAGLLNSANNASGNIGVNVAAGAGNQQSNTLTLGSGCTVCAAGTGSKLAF

“DNAJB6 mutant F91L, used as pseudowildtype (from UniProt O75190 1-326) (natural protein)” showed a fold reduction of the primary nucleation rate constant kn of spontaneous CsgA fibrillation (ThT kinetics, Amylofit), by 0.12 μM DNAJB6 (fold reduction) [1] of 1e+07 and a fold reduction of the primary nucleation rate constant kn of spontaneous FapC fibrillation (ThT kinetics, Amylofit), by 0.6 μM DNAJB6 (fold reduction) [2] of 1000.

“Bri2 BRICHOS monomer (M-Bri2) (domain or fragment)” was tested, and the fold reduction of the primary nucleation rate constant kn of spontaneous CsgA fibrillation (ThT kinetics, Amylofit), by 1 μM Bri2 monomer (fold reduction) [1] was 1000 and the fold reduction of the primary nucleation rate constant kn of spontaneous FapC fibrillation (ThT kinetics, Amylofit), by 6 μM Bri2 monomer (fold reduction) [2] was 40.

For “Bri2 BRICHOS oligomer (O-Bri2) (from UniProt Q9Y287 137-231) (domain or fragment)”, the fold reduction of the primary nucleation rate constant kn of spontaneous CsgA fibrillation (ThT kinetics, Amylofit), by 1 μM Bri2 oligomer (fold reduction) [1] was 100000 and the fold reduction of the primary nucleation rate constant kn of spontaneous FapC fibrillation (ThT kinetics, Amylofit), by 6 μM Bri2 oligomer (fold reduction) [2] was 10.

B1: CsgC (natural protein, UniProt P52107 9-110, looked up)
chain: ALSSQITFNTTQQGDVYTIIPEVTLTQSCLCRVQILSLREGSSGQSQTKQEKTLSLPANQPIALTKLSLNISPDDRVKIVVTVSDGQSLHLSQQWPPSSEKS
modifications: Alexa Fluor 546 label (peptide array only)
B1 was tested, and the “fold reduction of the primary nucleation rate constant kn of spontaneous CsgA fibrillation (ThT kinetics, Amylofit), by 1 μM CsgC” value [3] was roughly 100000 fold reduction.

B2: S100A9 (natural protein, human, UniProt P06702 1-114, looked up)
chain: MTCKMSQLERNIETIINTFHQYSVKLGHPDTLNQGEFKELVRKDLQNFLKKENKNEKVIEHIMEDLDTNADKQLSFEEFIMLMARLTWASHEKMHEGDEGPGHHHKPGLGEGTP
modifications: Alexa Fluor 546 label (peptide array only)
B2 was tested, and the fold reduction of the primary nucleation rate constant kn of spontaneous FapC fibrillation (ThT kinetics, Amylofit), at 50 μM S100A9 (fold reduction) [2] was 6 and the “fold reduction of the primary nucleation rate constant kn of spontaneous CsgA fibrillation (ThT kinetics, Amylofit), at 4 μM S100A9” value [3] was 20 fold reduction.
